The text below walks through data of patent US20190233539A1.

Holding throughout (experiment): BIAcore SPR, koff against wild-type Fc
One assay has as its target CD32B (FcγRII-B) (UniProt P31994).
In another assay the target is CD32A^H (UniProt P12318).
For assay [1], the target named is CD16A with Phe at position 158 (human) (UniProt P08637).
The target of assay [2] is CD16A with Val at position 158 (human) (UniProt P08637).
CD16A with Val at position 158 (human), sequence (P08637 17-208 F176V limits assumed): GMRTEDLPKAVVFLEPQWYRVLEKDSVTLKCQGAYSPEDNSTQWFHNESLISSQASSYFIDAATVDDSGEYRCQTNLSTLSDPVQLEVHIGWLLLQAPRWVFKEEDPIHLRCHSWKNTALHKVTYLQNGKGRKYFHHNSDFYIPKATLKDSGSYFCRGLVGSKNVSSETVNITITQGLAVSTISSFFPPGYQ

CD32A^H, sequence (P12318 34-217 limits assumed): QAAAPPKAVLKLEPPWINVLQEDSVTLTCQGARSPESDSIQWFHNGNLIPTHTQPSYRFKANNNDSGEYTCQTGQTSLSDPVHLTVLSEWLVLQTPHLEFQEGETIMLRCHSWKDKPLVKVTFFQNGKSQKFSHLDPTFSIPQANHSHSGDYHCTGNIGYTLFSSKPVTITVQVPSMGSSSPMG
CD16A with Phe at position 158 (human), sequence (P08637 17-208 limits assumed): as the sequence (P08637 17-208 F176V limits assumed) above, with V160F counted along it
CD32B (FcγRII-B), sequence (P31994 43-217 limits assumed): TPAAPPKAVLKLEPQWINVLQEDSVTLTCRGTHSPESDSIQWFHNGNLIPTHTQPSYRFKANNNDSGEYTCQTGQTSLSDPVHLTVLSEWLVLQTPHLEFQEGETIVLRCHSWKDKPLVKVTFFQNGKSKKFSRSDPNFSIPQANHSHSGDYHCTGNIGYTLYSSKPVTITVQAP

Consider Fc mutant 9 (F243L, P396L), for which the WT koff/mutant koff was 1.6 in the assay with CD32B (FcγRII-B) and 1.5 in the assay with CD32A^H.
In the case of “Fc mutant 16 (F243L, R292P, Y300L, P396L)”, the WT koff/mutant koff worked out at 1.1 with CD32B (FcγRII-B), 5.6 in assay [1], 10.1 in assay [2] and 1.7 with CD32A^H.
Regarding Fc mutant 11 (R292P, V305I), the results for the WT koff/mutant koff with CD32B (FcγRII-B) and in the assay with CD32A^H were 0.4 and 0.8, respectively.
With “Fc mutant 17 (F243L, R292P, V305I, P396L)”, the WT koff/mutant koff worked out at 0.4 with CD32B (FcγRII-B), 2.3 in assay [1], 4 in assay [2] and 0.8 in the assay with CD32A^H.
Taken in the same sequence, the figures for Fc mutant 12 (F243L, R292P, Y300L) were 0.6, 4.6, 7.4 and 1.
The matching figures for Fc mutant 13 (F243L, R292P, V305I): 0.1, 1.4, 2.6 and 0.2.
Taken in the same sequence, the figures for “Fc mutant 18 (F243L, R292P, Y300L, V305I, P396L)” were 1.4, 8.3, 10.1 and 3.2.
Fc mutant 8 (P396L): the values for the WT koff/mutant koff (in the assay with CD32B (FcγRII-B); in assay [2]; with CD32A^H) were 2.6, 1.3 and 1.6, respectively.
With Fc mutant 3 (R292P), the WT koff/mutant koff was determined as 0.3 in the assay with CD32B (FcγRII-B), 1.6 in assay [1], 2.4 in assay [2] and 0.7 in the assay with CD32A^H.
As to Fc mutant 5 (Y300L), the WT koff/mutant koff in the assay with CD32B (FcγRII-B) was found to be 1.2; in assay [1] it was 1.2; with CD32A^H it was 2.9.
Turning to Fc mutant 10 (F243L, R292P), the WT koff/mutant koff in the assay with CD32B (FcγRII-B) came out at 0.2; in assay [2] it was 4; in the assay with CD32A^H, 0.5.
Turning to Fc mutant 6 (V305I), the WT koff/mutant koff turned out to be 1.2 with CD32B (FcγRII-B), 0.6 in assay [1], 0.9 in assay [2] and 1.3 in the assay with CD32A^H.
Taken in the same sequence, the figures for Fc mutant 7 (A330V) were 0.3, 1.2, 0.6 and 0.4.
Turning to Fc mutant 1 (F243L), the figures for the WT koff/mutant koff (with CD32B (FcγRII-B); in assay [2]; with CD32A^H) were 0.8, 4.8 and 0.6, respectively.
On to Fc mutant 15 (R292P, V305I, P396L), for which the WT koff/mutant koff worked out at 0.9 in the assay with CD32B (FcγRII-B), 1.9 in assay [1], 1.9 in assay [2] and 1.5 with CD32A^H.
Fc mutant 4 (S298N) came in with a WT koff/mutant koff with CD32B (FcγRII-B) of 0.2.
Regarding Fc mutant 2 (D270E), the WT koff/mutant koff with CD32B (FcγRII-B) turned out to be 0.4; in assay [2], 1.3; in the assay with CD32A^H, 2.2.
The matching figures for Fc mutant 14 (F243L, R292P, P396L): 0.4, 6.3 and 1.4.
